Experiments:
Test in all cases: FRET or BRET; acceptor photobleaching FRET between ECFP and EYFP fusions in tobacco leaf epidermis; YFP bleached with a 514 nm laser; E = 100(A − B)/B
EYFP-ROP11 (Arabidopsis) = EYFP-ROP11 (Arabidopsis) (UniProt O82481)
[1] = target: EYFP-ROP11G17V (Arabidopsis) (UniProt O82481)
[2] = target: EYFP-ROP11T22N (Arabidopsis) (UniProt O82481)
[3] = target: BDR1-ECFP (Arabidopsis thaliana)
Sequence of BDR1-ECFP (Arabidopsis thaliana) (main, as listed by the source): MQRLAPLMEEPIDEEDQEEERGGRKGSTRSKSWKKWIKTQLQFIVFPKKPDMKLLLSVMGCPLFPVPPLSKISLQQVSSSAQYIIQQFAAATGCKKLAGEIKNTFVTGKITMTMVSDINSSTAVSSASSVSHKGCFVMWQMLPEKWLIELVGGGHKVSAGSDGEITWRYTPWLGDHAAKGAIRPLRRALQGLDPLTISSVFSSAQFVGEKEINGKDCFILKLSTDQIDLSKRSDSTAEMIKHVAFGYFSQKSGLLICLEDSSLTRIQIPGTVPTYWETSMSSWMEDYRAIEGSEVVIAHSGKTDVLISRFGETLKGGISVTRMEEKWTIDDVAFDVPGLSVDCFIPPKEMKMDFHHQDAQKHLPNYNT

FRET efficiency (EYFP-ROP11 (Arabidopsis)) [%]	FRET efficiency [1] [%]	FRET efficiency [2] [%]	FRET efficiency [3] [%]	Substance
> 10	> 10	0	–	BDR1-ECFP (natural protein)
–	–	–	15	EYFP-WAL (natural protein)

— publication PMC6349933
